One assay has as its system Pichia pastoris HCPs. Put plainly: Contribution of individual PichiaGuard peptides to HCP binding (flow-through, BCA, proteomics, IgG incubation). The note with it: for number of HCPs bound (HCP binding density): FIG. 13, proteomics; for coverage of HCPs: FIG. 13, by theoretical isoelectric point; for number of HCP species bound compared with PichiaGuard: FIGS. 14A-14H. The source says: Within HCP binding, it was observed that sequences 5 through 8 display the highest capacity for HCPs, followed by 4, 3 and 1. The same sequences in order also show low to high IgG binding potential, generating a qualitative understanding of binding capacity (Y-axis) and binding selectivity (HCP/IgG).
The color spectrum diverging from blue to red indicates an increasing number of HCPs with specific molecular weight (Y-axis) and theoretical isoelectric points (X-axis) captured by each peptide.
FIGS. 14A-14H compare the total number of identified HCPs bound by individual peptides with that of the PichiaGuard ensemble.
Analysis of PichiaGuard Peptide Contributions to HCP Binding: Contributions of individual peptides comprising PichiaGuard were discerned in terms of their binding to Pichia pastoris HCPs “by-sequence”. These studies comprised of the flow-through purification of null Pichia culture fluids (no recombinant protein), subsequently purified using chromatographic columns packed with individual peptides. The fluids were purified at a 1-minute residence time and flow-through fractions were collected across time for the identification of bound and unbound HCPs (see chromatograms in FIG. 11A). These fractions were analyzed using total protein quantification assay (BCA) and compared with that of the load sample to compute HCP log-reduction value for each individual sequence (FIG. 11B, left). Simultaneously, 25 μL of each peptide was incubated with a range of IgG concentrations (0.1-30 mg/mL resin) overnight to understand their binding propensities to the competitor molecules under non-competitive conditions. Protein content in the supernatant was estimated and compared to the initial concentrations to observe IgG binding (FIG. 11B, right). All flow-through fractions were analyzed through the proteomics workflow (as described further herein) to identify unbound HCPs and overall, correlate peptide and HCP properties. Briefly, label free quantification was performed to identify HCPs within each flow-through fraction and compared to the feed sample used within the experiment. The data was first grouped as a function of time for each peptide and data filters were applied based on the abundance ratio to label bound and unbound HCPs, at different confidence levels based on the number of fractions they were identified in. Concurrently, the “Peptides” package within RStudio was utilized to calculate sequence-based properties of each HCP such as polarity, H-bonding, hydrophobicity and charge.

The target of assay [1] is K. phaffii host cell proteins (HCPs). Put plainly: flow-through chromatography, acetate buffer, RT 1 min, up to 10 CVs.
The target is the same in assay [2]. Put plainly: flow-through chromatography, acetate buffer, RT 1 min, up to 40 CVs.
The target is the same in assay [3]. Kind of assay: flow-through chromatography, DOE study, phosphate buffer.
Assay [4] has the same target. Put plainly: flow-through chromatography, DOE study, acetate buffer.
For assay [5] the target is unchanged. Kind of assay: flow-through chromatography of ScFv13R4 harvest, 20 mM sodium acetate pH 5.7, RT 1 min; protein loading 5.10 g/L resin.
Assay [6] shares this target. Put plainly: flow-through chromatography of ScFv13R4 harvest, 20 mM sodium acetate pH 5.7, RT 1 min; protein loading 2.10 g/L resin.
Assay [7] has the same target. Kind of assay: static binding, Langmuir isotherm fit, HCPs treated as a single species; acetate buffer pH 5.7.
The target is the same in assay [8]. Kind of assay: flow-through chromatography, DOE study.
Assay [9] shares this target. Kind of assay: static binding, Langmuir isotherm fit; phosphate buffer pH 7.1-7.2.
For assay [10] the target is unchanged. Kind of assay: flow-through chromatography of ScFv13R4 harvest, 20 mM sodium acetate pH 5.7, RT 1 min; protein loading 14.40 g/L resin.
Assay [11] shares this target. Put plainly: flow-through chromatography of ScFv13R4 harvest, 20 mM sodium acetate pH 5.7, RT 1 min; protein loading 7.50 g/L resin.
Assay [12] shares this target. Put plainly: flow-through chromatography of ScFv13R4 harvest, 20 mM sodium acetate pH 5.7, RT 1 min; protein loading 9.30 g/L resin.
Assay [13] has the same target. Kind of assay: flow-through chromatography of ScFv13R4 harvest, nanoLC-MS/MS.
Assay [14] shares this target. Kind of assay: flow-through chromatography, RT 1 min.
For assay [15] the target is unchanged. Kind of assay: flow-through chromatography, acetate buffer, RT 1 min, up to 20 CVs.
Assay [16] has the same target. Put plainly: static binding, Langmuir isotherm fit; acetate buffer pH 5.7.
Assay [17] shares this target. Kind of assay: static binding, Langmuir isotherm fit, HCPs treated as a single species; phosphate buffer pH 7.1-7.2; pH 7.15.
Assay [18] has the same target. Put plainly: flow-through chromatography of ScFv13R4 harvest, 20 mM sodium acetate pH 5.7, RT 1 min; protein loading 3.90 g/L resin.
For assay [19] the target is unchanged. Kind of assay: flow-through chromatography, acetate buffer, RT 1 min, up to 100 CVs.
For assay [20] the target is unchanged. Put plainly: flow-through chromatography of mAb harvest, acetate buffer, load up to 15 mg/mL.
Assay [21] shares this target. Kind of assay: flow-through chromatography of ScFv13R4 harvest, 20 mM sodium acetate pH 5.7, RT 1 min; protein loading 6.30 g/L resin.
Assay [22] has the same target. Put plainly: flow-through chromatography, 30th CV mark.
The target is the same in assay [23]. Kind of assay: flow-through chromatography, around the 30th CV.
Assay [24] has the same target. Kind of assay: flow-through purification of scFv perfusate, Pichia pastoris HCP ELISA; 150 CV load. (In general: An ELISA detects its analyte on a solid surface through an enzyme-linked reagent.)
Assay [25] shares this target. Put plainly: flow-through affinity chromatography.

A value given as a limit tells only on which side of the number the result lay.

The record followed here is patent US20260225001A1, “COMPOSITIONS AND METHODS FOR PURIFYING BIOLOGICAL FLUIDS” (North Carolina State University, priority 2023, published 2026).

On to RYWK [Peptide 2], for which the “selectivity (HCP vs IgG binding)” value in the assay with Pichia pastoris HCPs (FIG. 14I, non-competitive conditions) is “poor selectivity”.

As for RYWV [Peptide 8], the “number of HCPs bound (HCP binding density)” value (from here on “number of HCPs bound”) with Pichia pastoris HCPs is reported as “least number of HCPs”.

In the case of YHKH [Peptide 1], in the assay with Pichia pastoris HCPs, the “coverage of HCPs” value is on record as “broad coverage of HCPs with varying pI”, the “number of HCPs bound” value is “High HCP binding densities” and the “number of HCP species bound compared with PichiaGuard” value is “binding most species”.

Take EWAK [Peptide 4]: in the assay on Pichia pastoris HCPs, the “coverage of HCPs” value is on record as “broad coverage of HCPs with varying pI”, the “number of HCPs bound” value is “High HCP binding densities” and the “number of HCP species bound compared with PichiaGuard” value was “binding most species”.

With WYKK [Peptide 6], the “number of HCP species bound compared with PichiaGuard” value with Pichia pastoris HCPs is reported as “binding most species”.

Turning to QEKK [Peptide 5], the “coverage of HCPs” value with Pichia pastoris HCPs is given as “broad coverage of HCPs with varying pI”.

Consider VWHH [Peptide 7], for which, in the assay with Pichia pastoris HCPs, the “coverage of HCPs” value is recorded as “broad coverage of HCPs with varying pI” and the “number of HCP species bound compared with PichiaGuard” value is “binding most species”.

For the molecule CHO LigaGuard™ resin, the cumulative HCP LRV in [1] was in the range of 1 to 1.5 LRV; in assay [2] it was 0.45 to 0.55 LRV.

B1: PichiaGuard-TP50F resin (peptide)
peptide 1: YHKH
peptide 2: RYWK
peptide 3: RWYQ
peptide 4: EWAK
peptide 5: QEKK
peptide 6: WYKK
peptide 7: VWHH
peptide 8: RYWV
modifications: bound to aminated Toyopearl HW-50F resin
With B1, the HCP LRV in assay [3] lay within 0.8 to 1 LRV; in assay [4], 0.7 to 0.9 LRV.

B2: PichiaGuard-TP650M resin (peptide)
peptide 1: YHKH
peptide 2: RYWK
peptide 3: RWYQ
peptide 4: EWAK
peptide 5: QEKK
peptide 6: WYKK
peptide 7: VWHH
peptide 8: RYWV
modifications: bound to Toyopearl AF-Amino-650M resin
For the molecule B2, the cumulative HCP LRV was 1.92 LRV in assay [5]; 3 LRV in assay [6]; 1.01 LRV in assay [10]; 1.34 LRV in assay [11]; 1.14 LRV in assay [12]; 1.5 to 2 LRV in [15]. Moreover, the cumulative HCP LRV in assay [18] was 2.55 LRV; in assay [19], 1.3 LRV; in [1], over 2 LRV; in [21] it was 1.55 LRV. For the same molecule, the values for the Kd in assay [7] and in assay [17] were 17.5 µM and 30 µM, respectively. Besides, the HCP LRV in [8] came out at 3 LRV. Besides, the results for the Qmax (maximum binding capacity) (mg HCP per mL resin) in assay [9] and in [16] were 18.3 and 25.4, respectively. Besides, the % of HCPs completely removed in assay [13] was over 84%. The molecule further showed a % of HCPs partially cleared in assay [13] of 15%. This molecule yielded a fold change of HCP clearance activity, phosphate buffer against acetate buffer in assay [14] of 10 fold lower. In assay [20], this molecule had an overall HCP LRV of 1.15 LRV.

B3: PichiaGuard (peptide)
peptide 1: YHKH
peptide 2: RYWK
peptide 3: RWYQ
peptide 4: EWAK
peptide 5: QEKK
peptide 6: WYKK
peptide 7: VWHH
peptide 8: RYWV
modifications: bound to a chromatographic resin; which Toyopearl base is not said at these places
For the molecule B3, in assay [22], the load at saturation as % of Qmax was 75 % of Qmax and the load ratio at saturation (g of HCPs per L of resin) worked out at 18. Also, in assay [23], the cumulative LRV at plateau was determined as 1 LRV and the fractional LRV was under 0.5 LRV. Further, the HCP removal (logs) in assay [24] was 1.7 logs. The molecule also gave a % reduction of HCPs and hcDNA in [25] of under 99%.
